{"source": "patent US20240199755A1", "about": "“ANTAGONISTS AND AGONISTS OF THE TRANSFERRIN RECEPTOR-2 FOR USE IN THE TREATMENT OF DISEASES OF THE BONE” (Kymab Limited, priority 2018, published 2024)", "molecules": {"B1": {"name": "Tfr2-ECD: Recombinant full-length extracellular domain (aa 103-798) of murine Tfr2, His-tagged, expressed in Sf9 insect cells (protein, listed as Mus musculus)", "chain": "RGSCQACGDSVLVVDEDVNPEDSGRTTLYWSDLQAMFLRFLGEGRMEDTIRLTSLRERVAGSARMATLVQDILDKLSRQKLDHVWTDTHYVGLQFPDPAHANTLHWVDADGSVQEQLPLEDPEVYCPYSATGNATGKLVYAHYGRSEDLQDLKAKGVELAGSLLLVRVGITSFAQKVAVAQDFGAQGVLIYPDPSDFSQDPHKPGLSSHQAVYGHVHLGTGDPYTPGFPSFNQTQFPPVESSGLPSIPAQPISADIADQLLRKLTGPVAPQEWKGHLSGSPYRLGPGPDLRLVVNNHRVSTPISNIFACIEGFAEPDHYVVIGAQRDAWGPGAAKSAVGTAILLELVRTFSSMVSNGFRPRRSLLFISWDGGDFGSVGATEWLEGYLSVLHLKAVVYVSLDNSVLGDGKFHAKTSPLLVSLIENILKQVDSPNHSGQTLYEQVALTHPSWDAEVIQPLPMDSSAYSFTAFAGVPAVEFSFMEDDRVYPFLHTKEDTYENLHKMLRGRLPAVVQAVAQLAGQLLIRLSHDHLLPLDFGRYGDVVLRHIGNLNEFSGDLKERGLTLQWVYSARGDYIRAAEKLRKEIYSSERNDERLMRMYNVRIMRVEFYFLSQYVSPADSPFRHIFLGQGDHTLGALVDHLRMLRADGSGAASSRLTAGLGFQESRFRRQLALLTWTLQGAANALSGDVWNIDNNF", "modifications": "His tag", "notes": "Recombinant full-length extracellular domain (aa 103-798) of murine Tfr2, His-tagged, expressed in Sf9 insect cells"}}, "assay": "Iron, blood and bone parameters of wild type mice treated systemically with Tfr2-ECD", "assay_type": "in vivo", "description": "For systemic Tfr2-ECD treatment, WT mice were treated every other day with Tfr2-ECD intraperitoneally for two weeks. Mice received 250 μg Tfr2-ECD (10 mg/kg BW) per injection for the first 10 days after BMP-2/matrigel injection into the muscle and 125 μg per injection (5 mg/kg BW) for the remaining time. This experiment was performed once with 8-10 mice per group. Drop-weight HO: This experiment was performed according to Liu et al. with minor modifications^65. Female 10-12-week-old WT mice were anesthetized and placed on a ridge of a plastic container over which the right leg was bent so the femur was lying horizontally. Mice received an injection of 1 μg BMP-2 mixed in 50 μl matrigel. Afterwards, a stainless-steel ball of 16 g (16 mm diameter) was dropped from a distance of 80 cm height onto the quadriceps muscle. Mice either received a single dose of 1 μg Tfr2-ECD, which was co-injected with the BMP-2/matrigel mixture, or palovarotene (Hycultec), which was administered daily by oral gavage. Palovarotene was dissolved in DMSO and diluted 1:4 with corn oil. Mice received palovarotene at a dose of 100 μg/mouse for the first five days and 50 μg/mouse for the remainder of the experiment (days 621). One group of mice received ibuprofen via the drinking water at a dose of […] which was changed every other day^66. Mice received methamizole (200 mg/kg) to reduce pain for the entire duration of the experiment. This experiment was performed twice with 6 mice per group.\nBone microarchitecture was analyzed using the vivaCT40 (Scanco Medical, Switzerland). The femur and the fourth lumbar vertebra were imaged at a resolution of 10.5 μm with X-ray energy of 70 kVp, […], and an integration time of 200 ms. The trabecular bone in the femur was assessed in the metaphysis 20 slices below the growth plate using 150 slices. In the vertebral bone, 150 slices were measured between both growth plates. The cortical bone was determined in the femoral midshaft (150 slices). Pre-defined scripts from Scanco were used for the evaluation.\nThe iron concentration in the liver was determined using 20 mg of dried liver tissue as previously published^8. The iron concentration in the bone was determined using atomic absorption spectroscopy (PerkinElmer Analyst 800) of dried bone tissue (bone marrow-flushed femur and tibia) as previously published^69.\nThe bone turnover markers C-terminal telopeptide (CTX) and pro-collagen type I N-terminal peptide (P1NP) were measured in the serum using ELISAs (IDS, Germany). Serum dickkopf-1 and BMP-2 were measured using ELISAs from R&D Systems (Germany). Mouse sclerostin was measured with an ELISA from Alpco (USA). Serum ferritin and iron were measured using routine methods for clinical analyses on a Roche Modular PPE analyzer. The transferrin saturation was determined using a total iron binding capacity kit from Randox.", "key": {"[1]": {"details": "wild type mice, systemic Tfr2-ECD, n = 8, means ± SD"}}, "note": "Entries after “also recorded” stand apart in the source; their conditions may differ."}
{"molecule": "B1", "values": [{"measurement": "Adverse effects on blood counts, iron parameters, bone homeostasis or gross morphology of internal organs", "setting": "systemic Tfr2-ECD treatment, 2 week treatment period", "value": "No adverse effects; also recorded: did not show adverse effects"}, {"measurement": "Differential counts, Lymphocytes", "setting": "[1]", "value": "90.1 ± 4.35", "unit": "%"}, {"measurement": "Differential counts, Monocytes", "setting": "[1]", "value": "2.17 ± 2.55", "unit": "%"}, {"measurement": "Differential counts, Neutrophils", "setting": "[1]", "value": "7.33 ± 2.82", "unit": "%"}, {"measurement": "HCT", "setting": "[1]", "value": "0.51 ± 0.02"}, {"measurement": "Heart iron", "setting": "[1]", "value": "207.8 ± 54.1", "unit": "μg/g dry tissue"}, {"measurement": "Hemoglobin", "setting": "[1]", "value": "9.77 ± 0.41", "unit": "mmol/L"}, {"measurement": "Kidney iron", "setting": "[1]", "value": "112.6 ± 15.0", "unit": "μg/g dry tissue"}, {"measurement": "Liver iron", "setting": "[1]", "value": "578.3 ± 273^ μg/g dry tissue"}, {"measurement": "Plasma iron", "setting": "[1]", "value": "30.1 ± 3.3", "unit": "µmol/L"}, {"measurement": "Platelets", "setting": "[1]", "value": "385 ± 69.5 10^9/L"}, {"measurement": "RBC", "setting": "[1]", "value": "10.1 ± 0.40 10^12/L"}, {"measurement": "Reticulocytes", "setting": "[1]", "value": "197 ± 24.2 10^9/L"}, {"measurement": "Spleen iron", "setting": "[1]", "value": "620.2 ± 113^ μg/g dry tissue"}, {"measurement": "WBC", "setting": "[1]", "value": "11.0 ± 3.09 10^9/L"}, {"measurement": "μCT BV/TV Femur", "setting": "[1]", "value": "10.7 ± 3.09", "unit": "%"}, {"measurement": "μCT BV/TV Vertebrae", "setting": "[1]", "value": "24.1 ± 3.36", "unit": "%"}]}
